In a protein production outcome set (Wang et al. 2014):

Test: label from the status in PepcDB records

Row | Sequence | protein production
1 | MNNLNFTVIIPLFNKAEHILRTLQSVEWQKYPAAEIIVIDDGSTDEGPALVEKANIKNVKLVHQENQGVSAARNNGVALASHEYVAFLDADDEWLPLFLDEVARLIVKFPQAQFFGTRYQIVEPENNYCDAKIKLENINPEGVILDNYFDIASQGDLPFTMSSMVIERSLFQSIGGFPLNEPIGEDQDLFCRVALNTSIAYSPNIHSLYHKDAQNQASRINIPSTECGFSVRITKEARKDTKRKSAKYMLKYSATHLCHLAKLNIGNGHFSQARKLLSDPRCKLKPKHLIGLYGLSWIQQTSQWLANIIDYKQI | failed
2 | MNNNEKKVKYFLRKTAYGLASMSAAFAVCSGIVHADTSSGISASIPHKKQVNLGAVTLKNLISKYRGNDKAIAILLSRVNDFNRASQDTLPQLINSTEAEIRNILYQGQIGKQNKPSVTTHAKVSDQELGKQSRRSQDIIKSLGFLSSDQKDILVKSISSSKDSQLILKFVTQATQLNNAESTKAKQMAQNDVALIKNISPEVLEEYKEKIQRASTKSQVDEFVAEAKKVVNSNKETLVNQANGKKQEIAKLENLSNDEMLRYNTAIDNVVKQYNEGKLNITAAMNALNSIKQAAQEVAQKNLQKQYAKKIERISSKGLALSKKAKEIYEKHKSILPTPGYYADSVGTYLNRFRDKQTFGNRSVWTGQSGLDEAKKMLDEVKKLLKELQDLTRGTKEDKKPDVKPEAKPEAKPDVKPEAKPDVKPEAKPDVKPEAKPDVKPEAKPDVKPEAKPDVKPKAKPDVKPEAKPDVKPDVKPDVKPEAKPEDKPDVKPDVKPEAKPDVKPEAKPEAKPEAKPEAKPEAKPEAKPDVKPEAKPDVKPEAKPEAKPEAKSEAKPEAKLEAKPEAKPATKKSVNTSGNLAAKKAIENKKYSKKLPSTGEAASPLLAIVSLIVMLSAGLITIVLKHKKN | failed
3 | MNNQEKNMLGFNQDEYLTSAREIIAARQKAEQVADEIYQAGFSSLFFASVGGSLAPMMAINEFAKELTTLPVYVEQAAELIHKGNKRLNKDSVVITLSKSGDTKESVAIAEWCKAQGIRVVAITKNADSPLAQAATWHIPMRHKNGVEYEYMLLYWLFFRVLSRNNEFASYDRFASQLEILPANLLKAKQKFDPQADAIASRYHNSDYMMWVGGAEMWGEVYLFSMCILEEMQWKRTRPVSSAEFFHGALELLEKDVPLILVKGEGKCRALDERVERFASKITDNLVVIDPKAYALDGIDDEFRWIMAPCVVSTLLVDRLAAHFEKYTGHSLDIRRYYRQFDY | not failed
4 | MNNTIPRWRGFNLLEAFSIKSTGNFKEEDFLWMAQWDFNFVRIPMCHLLWSDRGNPFIIREDFFEKIDRVIFWGEKYGIHICISLHRAPGYSVNKEVEEKTNLWKDETAQEAFIHHWSFIARRYKGISSTHLSFNLINEPPFPDPQIMSVEDHNSLIKRTITEIRKIDPERLIIIDGLGYGNIPVDDLTIENTVQSCRGYIPFSVTHYKAEWVDSKDFPVPEWPNGWHFGEYWNREKLLEHYLTWIKLRQKGIEVFCGEMGAYNKTPHDVVLKWLEDLLEIFKTLNIGFALWNFRGPFGILDSERKDVEYEEWYGHKLDRKMLELLRKY | not failed
5 | MNPDSQHHATFNPGKGEGSPVGIAILGYGTVGSQVLRLLTENHNDFQHRAGGPLEIKGVAASSVEKHRGSLADQLGLLTDDARSLIARDDVDIVVEVIGGIDYPRELILEALHSGKSVVTANKALVAAHSEELAAAADEAGVDLYFEAAVAAAIPVLGPLRRSLAGDQIQSVAGIVNGTTNFILDAMDSTGASYDDMLAEATRLGYAEADPTADVEGHDAASKAAILASLAFHTRVTYADVYCEGISKITADDINAAKEAGFTIKLLAICERLNVDGVEKVSARVHPTLVPRNHPLASVDKSFNAIFVEAEAAGRLMFYGNGAGGNPTASAVLGDIVGAARNKVFGGRAPGESTYADLPIAPFGEVPTRFHIDMEVEDRVGVLADLAKTFSNHGISLRTVRQAEKDGHARLIVVTHTAKESELEATVEQIKNSDSVKKINSVIRLAGE | failed
6 | MNPENKMMLMAYGIFAIAGIISGILAYAPLGWIIGWIIYILAPKLLLNLVPDLPEELRNERVILRKTFWSFFFFWLYFTGLTYTLITNYEPVAYYEKALYYNITKG | failed
7 | MNPKHSCTNFGADIPVNSQLIVTTSELRQKLKEKNKFILVDNRTWDEHIGKVSGYTYYDKKGRIPGALYGHSGSDSVSLEEYRNIDNTMRNKYEILEMWDKENIDVNKQLIFMCGSGWRAAEVLTYANVIGVENTSLYSDGWMGWSLDNSNLIEVGEHKLEHHHHHH | failed
8 | MNPLDLIAKRAYPYETEKRDKTYLALNENPFPFPEDLVDEVFRRLNSDALRIYYDSPDEELIEKILSYLDTDFLSKNNVSVGNGADEIIYVMMLMFDRSVFFPPTYSCYRIFAKAVGAKFLEVPLTKDLRIPEVNVGEGDVVFIPNPNNPTGHVFEREEIERILKTGAFVALDEAYYEFHGESYVDFLKKYENLAVIRTFSKAFSLAAQRVGYVVASEKFIDAYNRVRLPFNVSYVSQMFAKVALDHREIFEERTKFIVEERERMKSALREMGYRITDSRGNFVFVFMEKEEKERLLEHLRTKNVAVRSFREGVRITIGKREENDMILRELEVFK | not failed
9 | MNPPDISVLIVSFNTRDLLRRCLASLRDQAGGTGIETIVVDNASRDGSADMVEAEFPDVRLIRSPVNLGFGNANNLAFTQSRGRYLVLLNSDACLAPGLLDAASKRMDACPDVGMAGGRLVGPEGGWQPSARMFPSLLNEFLVLSGLAHRYPKSRLFGRFDRTWADPSEEAGVDWVPGAFAILRRDLIDRIGFFDPRFFLYYEEVDLCRRIRAAGCKIMYWPELVITHLGGESAKTLSDMEFSSHASQLTLWRMRSQALYYRKWHGLALAWSAKTLEQLWHWLRALRHRRSAPAKAHDSEALIRLWNRAWKETEGGRVSPPQPWLEHHHHHH | failed
10 | MNPPEKLLTAENPALRQRAKAMRQEMSEAEAKLWQHLRAGRLNGYKFRRQQPMGNYIVDFMCVTPKLIVEADGGQHAEQAVYDHARTVYLNSLGFTVLRFWNHEILQQTNDVLAEILRVLQELEKQPAR | not failed
11 | MNQEFFMLSQAMVEHLNEQINLEFFSSNLYLQMSAWCEDKGFDGAAEFLRAHAVEEMQHMQRLFTYVSETGALPILGAIAAPRHDFASLGEVFRETYQHEQKITQQINKLAHVAFTSQDYSTFNFLQWYVAEQHEEEKLFKGILDKLELVGEDGKALFFIDKDLAALAKKGSSSVMDAPAE | not failed
12 | MNQLIFDFAAHDYPSFDKFLGTENAELVYVLRHKHGQFIYVWGEEGAGKSHLLQAWVAQALEAGKNAAYIDAASMPLTDAAFEAEYLAVDQVEKLGNEEQALLFSIFNRFRNSGKGFLLLGSEYTPQQLVIREDLRTRMAYCLVYEVKP | failed
13 | MNQLSRSACTAPQRGGAWQWIACWALLLFTLLVAPLAAAQAVQGNASQEAALTVAPAPRVGVVTMQPGEVFFERFGHDAIVVVDPRTQQATSYNFGFFDPSEPDFVPRFARGDMMYYLVALPLEEDLSQYRDAGRGVSVQWLDLPPDQARALAEGLAVRSQPENARYHYDYFMANCATMVRDTLDRAMGGALKSQLAGRSRGNTFRSEAVRLASPAPWMWLGFDLGLGPYADRPLSRWEEAFVPMRLADSLTQVHNSAGRPLVQSTQVLLPHRIAPEPAEQQRHWWPWLLTGLIVAAGVLALGRRQRLLAGLALPFWLLCAIGGGLLVYLWGFTAHASAWGNRNLLLVNPLCMLLWFGGIRLQLGHRPGRWFNVLSWVVAACALAALVIHWLSFQAQDNLQWVMLLLPIHTALAIALRLRDLPVRTR | failed
14 | MNQLTSSFIQNLAEDNIYKLPPHSIEAEQSVLGGLMLDNQAWDKVADIIIESDFYRQDHQLIYQHISRLIEQNKPADVITVAESLENAAQLQHAGGLAYIGAIAQNTPSAANIRRYAEIVRERSIMRKL | failed
15 | MNQPASAYFMDERKDPVETHTLSVLVQNEPGVLARVIGLFSGRGYNIESLTVSETEAQKHVSRITIVTTGTLAVIQQIKHQLDRMVPVYRVVDMTLSGRSIERELAMVKLRGVGEHRVEALRLAEAFRARVIDATIESFVFEITGNSAKINQFIDLMRPLGLVEVSRTGVAAIGRGPEGM | failed
16 | MNQPFLSVVIATFNVAEVLRECLHSLASQTFRDFEVVIQDGASTDGTLAVAQEAAGRLPRLSLASVADSGIYDAWNRALPRVTGDWVLFLGSDDTLAGPDVLAQCARRLADLPPQVLYACGDALEVYPDGSSRAVTCTAEGATRRMADHIPFCHSSLWHRACLFEARHFDATLRIAADYDLICRTWPHDGVGHTLGITVTHMGVGGVSSSPAHRLRTQWELVRVAARHGHGAFSRRRLVPLCKAVGLWVLCRLAGRRASVMLDRLRVMRGLPPCWTTADPARVGGRDSARGDALEHHHHHH | failed
17 | MNQSLSPQQSPGFLFIAVSMITCLILLINVSFKIILLGGLVFAINSLICPLIAALFLFALRNCTFKEQRHLLNICLMTLYMFCIGVYVLVNLPAAEYMHDNPAYQVIFEEIPKKFFATTIAFALSFYLPHLLFCTKNDRVLSTPKQCVLLALLGGVSFFCLDFYLLFSAPHAHSFKQIFIDSFMISSLLLLIIGVVYLTFLLNDKQHKGKALIETTELTLFPIYQYLICFAVTVMLVCLACEYRIIAINKDLVLSASCIFFPITIIISSIVGELWGYQANLKLALALLAAQFIFDMLLMGSVALPSPPFFNLNPFYHYIMPRRLSAASLSLFVTFLGNAMLLHYLKYSKWKINRSLRILIANISVNSLLCLVDYSLLYGGIYPYEQIINLAVSVWQYKLLTALIALPVILWMCKILERNYSLVVQTERN | failed
18 | MNQTRVLLIFSWLTVATLLWMDWSKNKNETLEISASHNLGVDSNLELEHAVPQIHAGAVPLQKDSQLIAAAPKVPVINVTTDVLQLKLDGFSILAADLLRFPQSKDRGAKPIKLLTDDPNYPYSATTGWVSQSNSPVPNLSTFLPEQPDVSYKLANDQNRLVVPFIWTAANGVSIRRTFTFERGRYAILIRDEIRNSGETPWNAYVFRKLSRVPIPNILNRAMTNPDSFSFNGAVWYSEKGGYERRAFKDYMNDGGLNREIGGGWIALLQHHFFTAWIPQKDQASLYLLAQNGSRDIAELRGPAFTVAPGQTTTTEARLWVGPKLVEQITKEHVKGLDRVVDYSRFQLMALIGQGLFWILSHLNSLLHNWGWAIVGLVVLLRIAMYPLSASQYKSAAKMRKFQPRLQQLKERYGEDRQKFQQAMMELYKKEKINPMGGCFPILIQMPIFFALYWVLVESVELRQAPWLGWIQDLTTRDPYFILPLLNIVIMWATQKLTPTPAGMDPIAGKMMQVMPLIFGVMMAFVPSGLALYWVINGGLNLLIQWWMIRQHADFSRKRSRENIK | failed
19 | MNRARDWLEQARHNLRHAQGSLGLGDYAWACFAAQQAAEAALKGLHLARGQVAWGHSILDLLADLPEDVDVPEDLVEAAKVLDKYYIPTRYPDAHPAGPAARHYTRLEAEEALDLAQKILAFVEEKL | not failed
20 | MNRAREINYLNSIALHQPFGIVGVSGETGIGKTTVLNFVNPEGVFTVRVNISLRDSMESILYDLLHSLALSLEKVEEVSDLAKEVRKWITDEVSTIKGFSLGVSFGVNASLTHEKSIRPRFNFFKAREKLGELIKQTVQRKGKFLLIIDELDKEKKEDVLRVIDSIKNFIIMEDFVVILSLPFSIYREYAADRLRWNEAGNLENIFTDIVFVEPLKKLEIKELIIKRLGSYIELIEDGVLDIVADFSDGNPRDGLWILTKAIYDNIHKELLSKEDLINTINRTISEYTGLTLNLTENQKKAIRVLRGSVYSREKIIETLQKEGFKRTTAYSVMDQLLQKRILLVEKEGYRISGKFSYMEI | failed
21 | MNRDLPVLRALRSLPDKVVGEALVSNDAISMRYDVDASTGKVVRPSHDLYGQSISGKVLIFKNTKGGVATGWALLNLKSRGTAPIALVCDTTNPVFVQGAALAGLPIMDGFRESPRSAVRTGDVVELDGISGELKVLRRGAGGQLEHHHHHH | failed
